Experimental data from patent publication US7521540B2, “CYR61 compositions and methods” (Munin Corporation, priority 1996, dated 2009).

Tests used:
cornea = experiment: Cornea assay for angiogenic factors; type: in vivo, rat; settings: for angiogenic effect in cornea assay: rat, in vivo
Description: Another assay for modulators of angiogenesis is an in vivo assay for assessing the effect of a suspected modulator in the presence of an ECM signaling molecule-related biomaterial, such as Cyr61, on angiogenesis is the Cornea Assay. The Cornea Assay takes advantage of the absence of blood vessels in the cornea, which in the presence of an angiogenic factor, results in the detectable development of capillaries extending from the sclera into the cornea. Friedlander et al., Science 270:1500-1502 (1995). This ingrowth of new blood vessels from the sclera can be microscopically monitored. Further, the visually determined rate of migration can be used to assess changes in the rate of angiogenesis. These cornea assays may be performed using a wide variety of animal models. Preferably, the cornea assays are performed using rats. By way of example, an assay for suspected modulators of Cyr61 using this assay is disclosed. To perform this assay, Cyr61 is initially titrated using primary capillary endothelial cells to determine effective concentrations of Cyr61. Subsequently, Cyr61, in the presence or absence of a suspected modulator, is surgically implanted into the corneas of mammalian laboratory animals, e.g., rabbits or rats. In a preferred embodiment, Cyr61 (or Cyr61 and a suspected modulator) is embedded in a biocompatible matrix, using matrix materials and techniques that are standard in the art. Subsequently, eyes containing implants are visually observed for growth of the readily visible blood vessels within the eye. Control implantations may consist of physiologically balanced buffers embedded in the same type of matrix and implanted into eyes of the same type of laboratory animal receiving the Cyr61-containing implants.
Although rats of various sizes can be used in the cornea assay, a preferred size for the rats is 150-200 g/animal. Anesthesia is induced with Methoxyflurane and is maintained for 40-60 minutes with sodium pentobarbital (50 mg/kg, delivered intraperitoneally). The eyes are gently opened and secured in place by clamping the upper eyelid with a non-traumatic hemostat. Two drops of sterile proparacaine hydrochloride (0.5%) are then placed on each eye as to effect local anesthesia. Using a suitable surgical blade such as a No. 11 Bard Parker blade, an approximately 1.5 mm incision is made approximately 1 mm from the center of the cornea. […] Once the cornea pocket is made, the spatula is removed and the distance between the limbus and base of the pocket is measured to make sure the separation is at least about 1 mm. […]
Following surgery, animals are examined daily for seven days with the aid of a stereomicroscope to check for inflammation and responses. […] During this seven day period, animals are monitored for implant position and corneal exudate. […]

NIH 3T3 fibroblasts = experiment: Fisp12/Cyr61 cell attachment and spreading, NIH 3T3; type: cell-based, mouse; settings: for cell attachment to coated dishes: coating 20 μg/ml, NIH 3T3 fibroblasts
Protocol: Another embodiment of the invention is directed to the use of Cyr61 to mediate cellular attachment to the extracellular matrix. Induction of cellular adhesion was investigated using murine Cyr61, fibronectin, and bovine serum albumin (BSA). Immunological 96-well plates (Falcon brand) were coated with 50 μl of 0.1% BSA in PBS at 4° C. in the presence of 0-30 μg/ml concentrations of murine Cyr61 or fibronectin. After two hours exposure to the coating solution, non-diluted immune or pre-immune antisera (30 μl/well), or affinity-purified anti-Cyr61 antibodies were added. For some wells, the coating mixture was adjusted to 10 mM DTT or 100 mM HCl. After 16 hours incubation, the coating solution was removed and the well surface was blocked with 1% BSA in phosphate-buffered saline (PBS) for 1 hour at room temperature. HUVE cells were plated in Ham's complete F12K medium [GIBCO-BRL, Inc.; Ham, Proc. Natl. Acacd. Sci. (USA) 53:786 (1965)] at 5×10^3-10^4 cells/well. Cycloheximide was added to 100 μg/ml immediately before plating and monensin was added to 1 μM 14 hours before plating. After a 2-hour incubation at 37° C., the wells were washed with PBS and attached cells were fixed and stained with methylene blue. The attachment efficiency was determined by quantitative dye extraction and measurement of the extract absorbance at 650 nm. Oliver et al., J. Cell. Sci. 92:513-518 (1989).
The capacity of Fisp12 to affect cell adhesion was also investigated. Fisp12 cell attachment assays were performed essentially as described (Oliver et al., [1989]). 96-well immunological plates were coated for 16 hours at 4° C. with 20 μg/ml Cyr61, Fisp12 or fibronectim (Gibco BRL) in PBS containing 0.1 mg/ml BSA and blocked with 10 mg/ml BSA for 1 hour at room temperature. HUVE cells were plated at 10^4 cells/well in F12K media with 10% FBS (Hyclone Laboratories, Inc., Logan, Utah); NIH 3T3 fibroblasts were plated at 3×10^4 cells/well and Mv1Lu cells were plated at 5×10^4 cells/well in minimal essential medium (MEM) with 10% FBS. After 1 hour incubation cells were fixed, stained with methylene blue and quantified as described (Oliver et al., [1989]). Cell spreading was examined on cells plated on 100 mm polystyrene petri dishes coated with 2.5 ml of a 20 μg/ml solution of Cyr61, Fisp12 or fibronectin. 10^7 cells were plated on each dish and cell spreading was analyzed 90 minutes after plating by microscopy at 100× magnification.

B1: Cyr61: Cysteine-rich ECM signaling protein; murine sequence SEQ ID NO:2, recombinant from Baculovirus-infected Sf9 cells (protein, listed as Mus musculus)
chain: MSSSTFRTLAVAVTLLHLTRLALSTCPAACHCPLEAPKCAPGVGLVRDGCGCCKVCAKQLNEDCSKTQPCDHTKGLECNFGASSTALKGICRAQSEGRPCEYNSRIYQNGESFQPNCKHQCTCIDGAVGCIPLCPQELSLPNLGCPNPRLVKVSGQCCEEWVCDEDSIKDSLDDQDDLLGLDASEVELTRNNELIAIGKGSSLKRLPVFGTEPRVLFNPLHAHGQKCIVQTTSWSQCSKSCGTGISTRVTNDNPECRLVKETRICEVRPCGQPVYSSLKKGKKCSKTKKSPEPVRFTYAGCSSVKKYRPKYCGSCVDGRCCTPLQTRTVKMRFRCEDGEMFSKNVMMIQSCKCNYNCPHPNEASFRLYSLFNDIHKFRD
B1 was tested, and the “eyes showing blood vessel growth after seven days” value (cornea; FGF 0.15 μM (six animals), Cyr61 1 μg/ml (seven animals)) was “all seven”, the “angiogenic effect in cornea assay” value (cornea) was “confirm the effect of angiogenic factors” and the “cell attachment to coated dishes” value (NIH 3T3 fibroblasts) was “promoted the attachment”. For the same molecule, the “attachment of NIH 3T3 cells to murine Cyr61-coated surfaces” value (NIH 3T3 fibroblasts; method of b177) was “promoted the attachment of NIH 3T3 cells, though less effectively than fibronectin”.

B2: Fisp12: Cysteine-rich murine protein, SEQ ID NO:6, mouse ortholog of CTGF (protein, listed as Mus musculus)
chain: MLASVAGPISLALVLLALCTRPATGQDCSAQCQCAAEAAPHCPAGVSLVLDGCGCCRVCAKQLGELCTERDPCDPHKGLFCDFGSPANRKIGVCTAKDGAPCVFGGSVYRSGESFQSSCKYQCTCLDGAVGCVPLCSMDVRLPSPDCPFPRRVKLPGKCCKEWVCDEPKDRTAVGPALAAYRLEDTFGPDPTMMRANCLVQTTEWSACSKTCGMGISTRVTNDNTFCRLEKQSRLCMVRPCEADLEENIKKGKKCIRTPKIAKPVKFELSGCTSVKTYRAKFCGVCTDGRCCTPHRTTTLPVEFKCPDGEIMKKNMMFIKTCACHYNCPGDNDIFESLYYRKMYGDMA
B2 was tested, and the “angiogenic effect in cornea assay” value (cornea) was “confirm the effect of angiogenic factors”, the “cell attachment to coated dishes” value (NIH 3T3 fibroblasts) was “promoted the attachment” and the “cell spreading” value (NIH 3T3 fibroblasts; dishes coated with 20 μg/ml, 90 minutes) was “promotes cell spreading”.
